Protein production data for 18 sequences are collected here from a protein production outcome set (Wang et al. 2014).

This data set in a line: label from the status in PepcDB records.
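Also: failed if final PepcDB status was selected cloned or expressed and not failed if soluble or beyond.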

For the sequence “MAKKAMENGYKLILGSQSMARKQILAEMGYDFTIVTADIDEKAIRKEKPEDLVVTIAEAKANEIILKLGGENQFTQDSQPTLLITADTVVVYKGWDKAEVYFHEIPEHVIDDLIDDAITFKVAGGLMLEHPLISPFIDSVVGGVDTVMGLSKELTEKFINDVL”, the protein production result is “failed”.

“MAKKENQQPDNHVGEVVSRSEQFIEKNMTKIGLVILGVFIIVAGIFAYKRFVSEPKAREAAAKVYLAEDKFIQELDSAALNGNGANEMGLLTVIKKYSGSDASNLAKAYAGICYYNLGEYQKAIDHLKGFSSKENMVAPSITRLIGDCYVQLKKYEEAVGYFEKAAAAASNDAITPGCLIKAGRVYEELKQYDKALAAYKQVKEKYYTSMEANTVEADIIRVKTKGAK”: the protein production result was “failed”.

As to “MAKKKIVAVIQARMGSSRLPGKVLMTVAGKPLLEHIIDRLRRSRTLDDIVIATSDKPCDDPLVDFAQTRGVTLVRGSEDNVLLRFNKAAEEVDADVIIRVTGDAPLVDPEVMDRLVRTLLQEGAEYCTIEAGINSIHEGFCTFTRGALKRLMTEAPDDPVAIEHVTAYFIAHPDKFHIARIPVGNEHRFKGARLSVDTPADVQFFDELYRLLGVPAGDADIADVVRLLRNNPHLLQINQHVYQKKATDRSHKVLIRCDGDSRTGLGHVVRCLALAGELREKQGCGIIFAMASGEPGMKMVRQADFPLERQEDADEGEWMDGLISRHHPDVLILDIRNDLPVEKVDSWREDGILVVGIDDPTPRRLAADLLFYPPIPQISELNWNNFNGEICSGWEWVLLRKQFCAPCPPRNNNPPALLLTMGGSDPANFTVRVLRVLDELQNDFETIVVIGAGFVHEEDLQQFLSQARRHYRIEREVSDMASLMRQADLAIASFGVTAYELAASGVPAVYLCLTPDHARSASKFVDDRLAFSCGVLEECSNERIIESTLSLLDSRELRHEVGRRACATVDGYGATRIATKIVEKLERMHSSHGLEHHHHHH”, the protein production entry was “failed”.

As for “MAKKWQQRAALRRKRISFHRSTDTTSSSTAAEKGCFVVYTSDRIRFAFPISYLSNSVIQELLKISEEEFGIPTEGPITLPFDSVFLEYLIRLVQRRMDGDTEKALITSISSTRCSLPCSFQLQEHSSTRLVF”, the protein production entry was “failed”.

For “MAKLHIPVMVDEVVHCLSPQKGQIFLDMTFGSGGHTKAILQKESDIVLYALDRDPTAYALAEHLSELYPKQIRAMLGQFSQAEALLMKAGVQPGTFDGVLMDLGCSSMQLDTPERGFSLRKDGSLDMRMDGGRSTGTCIYPKNIRGGEACQENRFSNCSGTQHLPHHQNPAACQHRCRSISSLCYLYTERLTTAIYPYCHQDFPGSSHICEQ”, the protein production entry is “failed”.

As to “MAKLHITTWGCQMNEYDSSKMADLLNSTHGLELTDKPEEADILLLNTCSIREKAQEKVFSQLGRWKNWKKDKPDLIIGVGGCVASQEGEHIRERAPFVDIVFGPQTLHRLPEMINQIRSGDRAVVDISFPEIEKFDRLPEPKAEGPTAFVSIMEGCNKYCSFCVVPYTRGEEVSRPVDDVLFEIAQLAEQGVREVNLLGQNVNAYRGETFDGGICTFAELLRLVAAIDGIDRLRYTTSHPIEFTDDIIEVYRDTPELVSFLHLPIQSGADRVLTMMKRNHTALEYKAIIRKLRAVRPNIQISSDFIVGFPGETAEDFEQTMKIIEQVNFDMSFSFIYSARPGTPASDLPDDVSENEKKDRLAHLQQRINHQAMQFSRLMLGTEQRILVEGPSKKDIMELTGRTETNRVVNFIGTPNMIGKFVDIKITDVYSNSLRGEVIRTEDQMGLRIVESASSVIARTRKEDDLGVGKYAVNLLEHHHHHH”, the protein production result was “failed”.

Take “MAKLVTENISKRFKNQDVLKHINITLENNEVYGLLGINGAGKTTLMKIICGILQQDSGEIKLDNRPMTRNDLHKVGSLIETPATYNHLSAQDNLKIVCLNESVDFSEINSVLSLVNLNVDKKKKVKDFSLGMKQRLGIAMALIKKPEILVLDEPSNGLDPYGIQELRELLKLLTEQGTSIIISSHILSEIQVLADHIGIIHEGELKYQQRNNKDENLEEIFFKITKGDYK”: the protein production entry is on record as “failed”.

In the case of “MAKPIRVLLYYKYVPIENAEQFAADHLAFCKSIGLKGRILVADEGINGTVSGEYETTQKYMDYVHSLPGMEDLWFKIDEEEEQAFKKMFVRYKKEIVHLGLEDNNFDSDINPLETTGAYLSPKEFKDALLDEDTVVLDTRNDYEYDLGHFRGAIRPDIRNFRELPQWVRDHKEEFMDKRVVVYCTGGVRCEKFSGWLVREGYKDVGQLHGGIVTYGKDPEVQGELWDGKLYVFDERIAVDVNHVDPIVVGKDWFDGTPCERYVNCGNPFCNRRILTSEENEDKYLRGCSHECRVHPRNRYVSENDLSQEEVVERLAAIGESLDVTPA”, the protein production result was “failed”.

On to “MAKPNIDELNQILTSYQNTINDTLQLFEQVPSPTQDKLYWNDVLQISDHLSKQATIVGMLWITGEPPKAEAMKETMEAYFNALQGFLLHCHGSMVGAGTTLSSTIHASVKQIVDSSFRLLQGSVSLYEGSYEKGRKPTIPQLAGAVWEACSNLKNVPETNIKAIGRAMAHVAVSMKDVLREMKELKPASSSPDHNVSTNSDDDDLGDELSPEEFEVAKMVADIVSETLVVIKELIRAITCMIKLENPKDNSEFVDSFEKLLKLCQGIGVQIDELGACVYPPQEFGLMKQTVENMRESIGEIESDVKSSKNSSSEALSGSCRRLQSLIEHMVTELDTRIEAEVVYKMQNVTL”, for which the protein production entry is “failed”.

Regarding “MAKQATTSRLLPESMDNSGEFWLHAFESLVADLPEPAFVVDADGDITHWNQAVENILGLPASEAVGMNAYDVFGTEGQDETLAQEVIRTGEPVREDEFRSAERPDGTMAHARAVAIPLMGPGGDAIGALELLIDFSDIVEQREALQSLQSQMATDVESAVGEIGDSAAAVTEQSDDIKQMAGEQSENLDEVQSEVSGFSATVEEIASSAEEVSSQSGEARELAEESVETAEETIERVEDATESAEQVASDSTELRGHIEEIDEFVEVINDIADQTNMLALNANIEAARSNSDSDGFAVVADEIKELADESKQHADEVERIVGEVREMADSTAENVEETTDAIQQALTDIETVLDNQQAIVDATSETEQGIGEVAAATDDQAASAEEIASMIDEIAQRAAEVSESIDELADANETQHRLAQDLEENVERVERRLAEIME”, the protein production entry is given as “failed”.

With “MAKRTPSIDTKNLTAVQLMELDACVRCGECVKWCPTYAASGGKPGLAPRDKILRWRQYMNKSYGLKAKLFGPQEVSPSELEEFKDDVHGCTTCGVCATVCEAGINTVEIWEAIRTNLVKKGIGPYGKQSAFPKLVGQYHNPYMKDQKDRLAWVPPDVKIEDKADIVYFTGCTAGYNQLALAFATSRVLNKLGIKFAMLGEEEWCCGSALIRTGQVHVDDVARELARHNVEALQKKGAKKVLFACAGCFRAAKIDWPRLLGKELPFEVIHITQFLADLIQADKIKWEKPINKTITYHDPCHLGRHVGVFNAPRYVLSHIPGVKFVEMDRSKEFQRCCGAGGGVKAGMPDLAVAMGESRVKDALETNADILSSACPFCKRNLSDGRDALKSDIVVEDIIELVAEALGLSTS”, the protein production result is given as “failed”.

Turning to “MAKSMRCKRVKRLRAIRREIVEKESFTLTREDAKSAAIEAALAAPKLPVRQAPVSPFMEVATPSSESASASTTIANDSDEEMDDEKKNKSLKPIGKKLKKKFKLGMKNRRSKGVLRGKRN”, the protein production entry is listed as “failed”.

Take “MAKTDRSQPSVLARIAAFRTGLSAEASAADYLERQGYRILARRFKTRCGEIDLVAQRDALVAFVEVKARGNVDDAAYAVTPRQQSRIVAAAEAWLSRHPEHAMSELRFDAILIAPNTAPRHLPGAFDATP”: the protein production entry is on record as “not failed”.

For the sequence “MAKTIYQPAPEAESNIREERSQRPNNRRRILLITVAASVILGLVAILFGGAILNPAATPESEPTMTATQIIPLVILVVMFVVATKWPLNIGVMGLVASFGVGYFMLGMTDKEILADFPANIVITIIGVTYFFSMAQRNGTVDIIVQTCVRLVRGKTLLLPWVFFLLAASLTALGTFSPAAVALLAPAAIGLAYESRIHPVLMGAFIINGAHAGGFSPLSVAGVLVHDIAVKNGFPISQGALFGASFALNLILSVLTVVLFALLGKLRDGATGQHADLDTTRTTRPHGQQILTLALIVAMLVCALGFHMPIGFVALSAGLLLALVNIKEHRTFIGGVSWSTVLLVAGMITYVSLLQHVGVIDTLAEQALALGAPLLIALVLCYVIGVGSAFASSTALLTAFIPLAGPLLATSSLSASGTVAALAIAATVVDVSPFSTDGALVVANAREDDRQRVYKQLMMYAGGVVLVAPALAWALLVPTGIM”, the protein production result is “failed”.

With “MAKTLGLHILADLYGVDADKIDRVEDIRELLEGAVKYANLTKISSHYYQFQPHGATGVVLLAESHISIHTWPEHGLATVDVYTCGDPSKAYRAMDYIITQLNPKRIDKQVHERGIVEEESNQSEAEKLRSILLQV”, the protein production result is on record as “not failed”.

In the case of “MALAGLLLGSALASSARAQSSDAAKPELEDALAVVDSLRRAGAFPAAQERLQSLREQHPERVPVLWRLVYTYADLGQSTDEENVRAQYYNNALNVAKAGLAADSTSARAHLAMAVAQGRAALDAGTRERIERSRAVKRHADRALAIDSTLDGAYHTRGRWHREVEDIGFVQRAIVKTVYGGLPESSIDQAVRDFRRALELRDRIFHHLELGKTYLQMDRPDAARRELRAVLDMPAEEPFDPRYKDEARRLLDDLD”, the protein production result is listed as “failed”.

Turning to “MALCLNPDCGQPNNDDANSSCATCGSPLLLRDRYRVVKAIGQGGFGATYLGQDLQLPGEPLCVIKQLLPQVQDPEIMLMARELFRREAKTLGRIGSHPQVPTLLDYFEAPEGFYLVQEYIRGKTLEQEVREQGVYSETATKQFLSELLPLLQYLHNQGVIHRDIKPANLLRRDIDRRLVLIDFGAVKDQVSQIQGGSGLTALTSFSVGTRGYAPPEQLAMRPVYSSDLYSLGVTCLFLMTGKGPQDLDYNPVTGELLWRNSVQVSDALATVLGKMLAASVRYRYQRAEQVMTALDLQPYHDSLIQGLSALPPGAPPIKPSSGRTGSGYPSPQERQAEAIRARRRDRSGNRPEQLADAQQIAAWTGGTSNTSGNNSAGRLSLNARDILATYQRGRRDFSQQPLNRIDLSESQLPSVNFQGAQLKESLFVAAQLERADFGQANLHRANLRRANLHQAYFGNADLSFANLQKADLSDAILSNANLRGTNLCGANLRGAKLTPVQLKMAKTNWWTILPDGRRGRLF”, the protein production entry is recorded as “failed”.

Consider “MALDSPVGRRLGLVLQSRSNGVGPDQLFGDSELDHRAVCVIGEKGAERLAGPERGVVGRDSLCCVHTRPYGLWPLHWPRPAAATTLSRPAILTPRTATRTCMTEATGIVGEFLTLKEGTDADLLAMQCGDFYEFFAEDAEIVADELDLKVSQKSSHGSSYPMAGVPVDDLTPYVSALVERGYRVAIADQHETENGHAREITRVVTPGTHLETGDESAQYLAAVVREASRDSGDTYGIAATDVTTGQFQVTQLDDADAGEALTELYTFGPAEILPGPELRNDDEFLDRLRERTDAALTLHDSASFEPGRASHTVREQFGSETVDSVGIGDQNVAVRAAGAVLSYVEDTGVGTLAAVTRLQAYGERDHVDLDATTQRNLELTETMQGDSSGSLFDTIDHTVTAAGGRLLQQWLQRPRRNRAELQRRQSCVAALSEAAMARERIRETLSDAYDLERLAARATSGSADARDLRAVQETLALLGQVADAVTETERLAESPLADALDGADREAADSLAAELDSALVADPPGTVRQGGLFKRGHDDDLDEIIDEHEAALEWLETLPDREKERTGITHLSVDRNKTDGYYIQVGKSETDAVPEKYQHIKTLKNSKRYTTPELDEKERDVLRLEERRHDMEYEHFQRLRARVAEHATLLQDVGRTLAELDAFASLAVHAVENDWARPAVVDGNELSIEAGRHPVVEQTTEFVPNDLYMDDDRQFLIVTGPNMSGKSTYMRQAALITLLAQVGSFVPARSATVGLVDGIFTRVGALDELAQGRSTFMVEMQELSNILHSATEESLVILDEVGRGTATFDGISIAWAATEYIVNSIQSKTLFATHYHELTALGEELPTVENVHVAVDGEPRSAGSDGDVTFLRTVRDGPTDRSYGVHVADLAGVPEPVVDRSQAVLDRLRDDKAIEIRGSEQNDGGTTQAVFDLDSGQFRDGAAQSGGAAAGSTAEPVATDGDPEHAPGEAAAEGPKGDERAASLDSETEAVLSELTELDVNETPPVELMAKVQEWQAELDDE”, for which the protein production result is on record as “failed”.
